Test results: patent US20230235075A1 (published 2023)

Key:
[1] = target: T1, Human CD93 recombinant protein (Sino Biological Inc, Catalog #12589-H08H) (human, UniProt Q9NPY3 22-580, biotinylated with EZ-LINK NHS-PEG4 biotin in the Octet assays); assay: ELISA
T1 chain: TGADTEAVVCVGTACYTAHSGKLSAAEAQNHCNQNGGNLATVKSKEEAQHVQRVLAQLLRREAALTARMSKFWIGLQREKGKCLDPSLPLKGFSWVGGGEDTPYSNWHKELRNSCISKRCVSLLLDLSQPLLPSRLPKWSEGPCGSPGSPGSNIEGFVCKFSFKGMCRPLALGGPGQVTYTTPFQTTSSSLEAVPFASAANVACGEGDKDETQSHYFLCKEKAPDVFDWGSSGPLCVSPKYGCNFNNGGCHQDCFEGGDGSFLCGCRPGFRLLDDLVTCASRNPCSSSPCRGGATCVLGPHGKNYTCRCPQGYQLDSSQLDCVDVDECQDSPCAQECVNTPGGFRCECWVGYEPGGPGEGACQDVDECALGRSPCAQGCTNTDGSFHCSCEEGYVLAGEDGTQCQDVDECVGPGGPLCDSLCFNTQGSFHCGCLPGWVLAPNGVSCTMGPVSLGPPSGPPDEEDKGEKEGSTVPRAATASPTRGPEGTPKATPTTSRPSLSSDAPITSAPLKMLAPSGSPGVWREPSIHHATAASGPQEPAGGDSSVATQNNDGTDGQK

[2] = target: T1, Human CD93 recombinant protein (Sino …); assay: ELISA
[3] = target: T1, Human CD93 recombinant protein (Sino …); assay: Octet
[4] = target: T1, Human CD93 recombinant protein (Sino …); assay: BLI (Octet)
[5] = target: T1, Human CD93 recombinant protein (Sino …); assay: Octet BLI
[6] = target: T1, Human CD93 recombinant protein (Sino …); assay: ELISA
[7] = target: T1, Human CD93 recombinant protein (Sino …); assay: BLI
[8] = target: T2, cynomolgus CD93 protein (made in-house) (cynomolgus, UniProt A0A2K5VH53 22-580, biotinylated with EZ-LINK NHS-PEG4 biotin in the Octet assays); assay: BLI
T2 chain: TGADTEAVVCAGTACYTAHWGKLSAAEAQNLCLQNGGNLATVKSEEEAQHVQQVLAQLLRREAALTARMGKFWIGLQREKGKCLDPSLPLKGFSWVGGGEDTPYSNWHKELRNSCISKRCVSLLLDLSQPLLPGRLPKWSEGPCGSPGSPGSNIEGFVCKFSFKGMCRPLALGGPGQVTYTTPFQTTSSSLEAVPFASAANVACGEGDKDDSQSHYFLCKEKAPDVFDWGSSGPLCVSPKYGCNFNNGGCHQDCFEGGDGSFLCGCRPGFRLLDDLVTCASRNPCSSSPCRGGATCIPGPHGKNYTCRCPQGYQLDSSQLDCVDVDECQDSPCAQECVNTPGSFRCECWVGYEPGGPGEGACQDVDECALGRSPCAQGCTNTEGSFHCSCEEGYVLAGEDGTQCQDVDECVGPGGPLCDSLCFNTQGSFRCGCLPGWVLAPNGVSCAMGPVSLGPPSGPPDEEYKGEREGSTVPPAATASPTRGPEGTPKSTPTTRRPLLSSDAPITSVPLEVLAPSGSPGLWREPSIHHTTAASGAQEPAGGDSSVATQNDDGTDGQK

[9] = target: T1, Human CD93 recombinant protein (Sino …); assay: ELISA; unit printed as pmM

B1: 7F3 (hybridoma) (antibody, V domains shown)
VH: QVQLQQSGADLVRPGASVKLSCKASGYTFTDYEMHWVKQTPVYGLEWIGGIDPETGDTAYNQNFKGKATLTADKSSSAAYMELRSLTSEDSAVYYCTNYGNLYYYAMDYWGQGTSVTVSS
VL: ENVLTQSPAIMSASPGEKVTMTCRASSSVSSSYLHWYQQKSGASPKLWIYSTSNLAFGVPARFSGSGSGTSYSLTISSVEAEDAATYYCQQYSGYPLTFGSGTKLEIK
**Q.** What does the source list for B1?
**A.** EC50 [1]: 0.0667 nM; EC50 [2]: 0.0667 nM; Kd [3]: 0.493 nM; Kd [4]: 1.26 nM

B2: 7F3-hIgG1 (antibody, V domains shown)
VH: B1 VH
VL: B1 VL
**Q.** With B2 as the binder, how does the EC50 [1] read?
**A.** The EC50 was 0.041 nM.

**Q.** What about the Kd [3] of the same binder?
**A.** The Kd was 0.588 nM.

**Q.** And the Kd [5]?
**A.** Its Kd is 0.588 nM.

B3: 10B1 (antibody, V domains shown)
VH: QVQLKQSGPGLVQPSQSLSITCTVSDFSLSSFGVNWVRQPPGKGLEWLGVIWSGGSTDYNVAFISRLSISKDNSKSQVFFKMNNLQADDTAIYYCARNWRYDGYFYAMDYWGQGTSVTVSS
VL: DIVMTQSQKFMSTSTGDRVSVTCKASQNVGTNVAWYQQKPGQSPKALIYSASYRFIGVPDRFTGSGSGTDFTLTITNVQSEDLAEYFCQQYNRNPITFGSGTKLEIK
**Q.** How did the Kd [4] turn out when B3 was run?
**A.** Its Kd is 0.904 nM.

B4: recombinant parental 17B10-hFc (antibody, V domains shown)
VH: QVQLQQSGPELVKPGASVKISCKASGYAFSSYWLNWVKQRPGKGLEWFGRIYPGDGDTDYNGKFKGKATLTADKSSSTAYMQLRSLTSEDSAVYFCVRGDGYWAMDYWGQGTSVTVSS
VL: DIVMTQAAFSNPVTLGTSASISCRFSKSLLHSNGITYLYWYLQKPGQSPQLLIYQMSNLASGVPDRFSSSGSGTDFTLRISRVEAEDVGVYYCAQNLELPWTFGGGTKLEIK
**Q.** Which EC50 [6] does the source give for B4 here?
**A.** The EC50 was 0.0167 nM.

B5: 17B10 (hybridoma) (antibody, V domains shown)
VH: B4 VH
VL: B4 VL
**Q.** With B5 as the binder, how does the EC50 [6] read?
**A.** The EC50 was 0.153 nM.

B6: Humanized 17B10 (VH3VL3, i.e., H3L3) (antibody, V domains shown)
VH: QVQLVQSGPEVKKPGESLKISCKASGYAFSSYWLNWVRQMPGKGLEWMGRIYPGDGDTDYNGKFKGQVTISADKSSGTAYLQLSSLKASDTAVYFCVRGDGYWAMDYWGQGTLVTVSS
VL: DIVMTQSPDSLAVSLGERATINCRFSKSLLHSNGITYLYWYQQKPGQPPKLLIYQMSNLASGVPDRFSGSGSGTDFTLTISSLQAEDVAVYYCAQNLELPWTFGGGTKLEIK
**Q.** How did the EC50 [6] turn out when B6 was run?
**A.** The EC50 was 0.213 nM.

B7: 16E4 (hybridoma) (antibody, V domains shown)
VH: QVQLQQPGAELVKPGASVKLSCKASGYTFTSYWMHWVKQRPGQGLEWIGEIDPSASYTYYNQKFKGKATLTVDKSSSTAYMQLSSLTSEDSAVYYCARSVYYGNKYFDVWGAGTTVTVSS
VL: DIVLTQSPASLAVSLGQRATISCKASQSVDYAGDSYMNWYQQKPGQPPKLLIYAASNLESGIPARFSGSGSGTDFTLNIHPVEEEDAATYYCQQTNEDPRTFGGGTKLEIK
**Q.** What does the source list for B7?
**A.** EC50 [1]: 0.112 nM; Kd [7]: 0.447 nM; Kd [8]: 0.446 nM; EC50 [9]: 0.112 nM; Kd [3]: 0.334 nM

B8: 16E4-hIgG1 (antibody, V domains shown)
VH: B7 VH
VL: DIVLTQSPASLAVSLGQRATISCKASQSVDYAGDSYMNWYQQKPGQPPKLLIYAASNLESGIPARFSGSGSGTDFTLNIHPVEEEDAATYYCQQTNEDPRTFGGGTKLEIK
**Q.** With B8 as the binder, how does the EC50 [1] read?
**A.** The EC50 was 0.041 nM.

**Q.** What about the EC50 [6] of the same binder?
**A.** Its EC50 is 0.041 nM.

**Q.** And the EC50 [2]?
**A.** The EC50 was 0.022 nM.

**Q.** What about the Kd [3] of the same binder?
**A.** Its Kd is 0.135 nM.

**Q.** And the Kd [5]?
**A.** The Kd was 0.135 nM.
